# Data reported in the supplement of paper PMC12042874.
# ± gives the uncertainty stated by the source.
# Experiment: amyloid nucleation score (Sup35N fusion, yeast selection) (log enrichment); library NNK1; higher = more nucleation; inactive = no reads after selection
# In short: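 Psi-negative yeast expressed Sup35N fused to peptides of 20 random codons. They were induced 24 hours with 100 μM copper sulfate, grown 7 days at 30°C without adenine and uracil, and their plasmid inserts from input and output were Illumina-sequenced. The nucleation score is the DiMSum log enrichment of output over input reads, centred on the mode score of non-aggregating sequences. Sequences with under 100 input reads were excluded.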
row,Substance,amyloid nucleation score
1,SGFRVKQYMFLCFY,-0.473 ± 0.73
2,IPRYVYIGLTPKAVLKQNLA,-1.04 ± 0.84
3,KVNFSSSLGCVN,0.713 ± 0.85
4,FDRWFRQGNGLVV,0.225 ± 0.78
5,KSKLMNKQFSRLTLVSTESR,3.86 ± 0.13
6,VLYAP,-0.33 ± 1.7
7,AVMCYDNTSSNVSFN,-0.279 ± 0.28
8,EGNLVLSMLMY,-0.198 ± 0.47
9,SVTEVFYGKSVFLTFVFGIF,0.292 ± 0.31
10,LSAVPSNGHNNGGYVKSDVS,-0.766 ± 1.4
11,NASSLVRTDCHSMRKESSMR,0.052 ± 0.4
12,PFTHHHKCLVHRLLCRLQHE,0.616 ± 0.79
13,LWGLVRSFFDIDNLKGFRTE,-0.257 ± 1.9
14,YLLESSTIGIV,0.474 ± 0.69
15,FGVTIPQVWVEC,-0.961 ± 1.7
16,YIGTKCWNANHVVLLLFCRG,-0.127 ± 0.32
17,FYLVATCVAFFRLHWFACN,-0.218 ± 0.36
18,YKSLMFWLVLVSVFMIRRNI,2.62 ± 0.26
19,SSSLSKLVFWKYFCIDEGLS,0.491 ± 0.53
20,MLSYQR,inactive
21,RIGNGVLKDYRLFFFETSFT,-0.727 ± 0.36
22,VRALND,-0.581 ± 0.3
23,VFKFKTM,1.24 ± 0.81
24,RASRMHGQGPLKNVWEGLYQ,0.119 ± 0.98
25,RTGYPGSEVMGTRSFLSRNS,-0.385 ± 1.9

row,Substance,amyloid nucleation score
1,TDFMFFWGDFMVTYTAVVCR,-0.096 ± 0.44
2,NQYMIQGKVSRSNIMCLGMR,-0.067 ± 0.21
3,YWFCNRIGIVGIVLSGYLCL,-0.154 ± 0.26
4,MYRDDAGFEGMF,1.19 ± 0.61
5,MMLSVCISKLTFLVIRDLLV,0.459 ± 0.23
6,NIPQLVVFKWMLSTC,-0.047 ± 1.1
7,IHEMTSWVTCRFCGVFKYIL,2.03 ± 0.13
8,NYIEPQG,0.296 ± 0.97
9,SIVLTIIKHFDYMFQDRGG,6.06 ± 0.07
10,LDMTTTLLVSLESDG,0.04 ± 0.73
11,SCFFKKMDMDT,0.436 ± 0.69
12,PISMKQVKREEMGFTPAVSS,-0.352 ± 0.95
13,SVWIKSST,-0.285 ± 1.4
14,RLSTAMRVEVIGVSCSDARA,-0.033 ± 0.28
15,GSLFYVRLLYRGCNTEITSK,0.925 ± 1.1
16,FRFELYRLPVSDSLMKDLQL,0.998 ± 0.58
17,FVVQPYHYKSY,0.264 ± 0.34
18,FSKFSAVVDDPVCWKRLIFL,-0.57 ± 0.53
19,RSVNSETQKFMRWFMRVWTP,-0.332 ± 0.33
20,GGKESLFRCFADRSCFMYI,-0.724 ± 2.4
21,AFYNCYSGNYFNYIFIYRCT,7.283 ± 0.053
22,SMSAQPFCNHV,-0.926 ± 0.91
23,YVLTCFAELGGRRGVS,-0.531 ± 1.4
24,YTAMFCNSVLHADGLPQLMG,-0.033 ± 0.97
25,HKCVLELFSLIFLGGYFFLR,0.041 ± 0.45

row,Substance,amyloid nucleation score
1,WIYGWACWYCNLNDSTRVGK,5.798 ± 0.047
2,DVLLFL,-0.779 ± 1.3
3,VNWIVVVFTNMLFLTKGRNA,0.308 ± 0.27
4,AMNRHGLWKSSVSRGILFFS,0.129 ± 0.35
5,SLIISKEGRYVFYVCLRGWW,-0.447 ± 0.42
6,RFLIGWFFSFLGCFLKRDSW,-0.571 ± 1.6
7,VESTCTNMRCYLGWFIPPF,0.387 ± 0.2
8,GQAGGWTARGQSSDIDLGQR,-0.146 ± 0.63
9,HYACRRSVERSKRRGVRGSM,0.039 ± 0.46
10,FVRCSAKMDLWSVLTVCSFC,3.2 ± 0.12
11,CCFRRVTSRVPGRTMEGNCF,-0.264 ± 1.2
12,MLCVGKA,-1.16 ± 0.64
13,NYSSINLWPCVMLNFRYL,inactive
14,IYFGFCRD,2.02 ± 0.089
15,AKLAPCNSLVIDTY,1.89 ± 0.4
16,YKGRTPSSRLASLVCRGG,-0.198 ± 0.64
17,GLNLRCSNTREGKVWNRTW,-0.37 ± 0.47
18,LPNSMLSSGLGWSSINFF,1.16 ± 0.7
19,FDGCNTKGNMSFAWSRPLGM,0.246 ± 0.97
20,NSPRPSLLCCPCGKAYLHFR,-0.282 ± 1.2
21,EERRMSWWFERGCKLAVELS,-0.614 ± 0.8
22,TNKGFQYSGLVYCCWVRYLF,inactive
23,MASLDGFLFNCWLRRLGFRA,-0.397 ± 0.4
24,NNTFVIVKFEAKDTFVEGVR,1.57 ± 0.3
25,GLRYFKLLLSEGSR,-0.209 ± 1

row,Substance,amyloid nucleation score
1,AVIEYR,-0.582 ± 0.32
2,FMPTKGGQSIIGLHPLLFML,-0.577 ± 0.58
3,MRGYPENKLSRSCQCRMRRY,-0.213 ± 0.74
4,CFDNIGGCFNPHDY,-0.184 ± 0.43
5,DLIWNSSFVRLNVTNPLMFR,inactive
6,YIRNTLTPEMVNWRDLRVPR,-0.152 ± 0.73
7,CIMLRMFVYESYSVCVVVA,inactive
8,DSPGSSGCKGATVHMSFTWG,0.731 ± 0.61
9,MISGPNFEVYRLAVINGRSW,0.848 ± 0.58
10,VGDWFSLVENWVVWSFSLIC,-1.89 ± 2.1
11,CGFKLVVVCFMK,3.47 ± 0.2
12,TTGSALTETATDQVGWNYSL,0.265 ± 0.41
13,TFVYLCVAHS,1.07 ± 0.53
14,IFYSSFS,inactive
15,MRSGTVYMVYLVHLKSFKWL,-0.265 ± 0.68
16,VTVEIAWKMA,0.054 ± 0.67
17,GYEEFGVGRTSVPMETARLK,-0.406 ± 0.44
18,SLRILRSRS,inactive
19,CHSTGGT,-0.468 ± 1.9
20,CFTKIFDDYSWCFGAGANQS,0.348 ± 0.28
21,VDSDLGLSERMTVKSTFAFC,0.39 ± 0.56
22,SKRLACSYSSMFVKCSEYKL,0.413 ± 0.97
23,SHGKVVIFSPSHCAGFFSCS,7.699 ± 0.061
24,AGVNWASHWHMDHMSGFVEW,-0.684 ± 0.3
25,VTYDKAQG,0.051 ± 0.68

row,Substance,amyloid nucleation score
1,ALLSSYLWK,0.996 ± 0.45
2,GHYKGECYSLMNPV,-0.067 ± 1.2
3,YYLQDDTWGLKFNPIVSTCF,1.13 ± 0.54
4,VVSLNE,0.915 ± 0.9
5,WQHSPTYGYLYIHC,0.633 ± 0.18
6,TVYLSNCERIYMQWVREFVS,2.68 ± 0.14
7,LSFSMGYNYELATTKWSVVF,1.3 ± 0.41
8,FSHDRGYLIFQVIRGHHCFM,0.277 ± 0.57
9,YKCMSKIFQFLVWAGEEWGL,-0.398 ± 1.1
10,VFWTYVGERKKSLVCRNLGA,-0.189 ± 0.71
11,SGAYLNKGFSVLAFYIIIVK,1.81 ± 0.26
12,VFPFPLGFDFKNHERKSVV,-1.24 ± 0.58
13,VSKGLEHRPHVWG,5.35 ± 0.064
14,FSSFESCCRRYSSM,0.576 ± 0.93
15,YLDDIH,-0.105 ± 0.44
16,LESQNHTFLRFIPKAALRIL,0.067 ± 0.47
17,VIDAIQPRKYGFV,-0.462 ± 0.58
18,GLRYSVYNCFLVCRGRREWP,5.54 ± 0.057
19,CIDCYYRVCRFWSDSQAR,0.552 ± 0.74
20,VLKLLVVRFVPLPSSFYTCE,0.193 ± 0.92
21,RCGCRRVVFDGFIGIGALRA,0.298 ± 0.6
22,EFIGFRLFIQVNSDFM,1.69 ± 0.23
23,IVVFQ,-0.887 ± 1.8
24,GYRSIGASGTQDLSQVVLNK,0.901 ± 0.98
25,TMHVMVGGYL,1.38 ± 0.41

row,Substance,amyloid nucleation score
1,LYGSNVVLSVRCGMHTTHCY,2.81 ± 0.24
2,VRMGQDRHIISTKLTVSREL,-1.22 ± 2.7
3,YFSDIAMWHSEIVR,-0.605 ± 0.73
4,GHAEIYMWTLGIPSRLFGAI,0.049 ± 0.45
5,RIENDGLEMLGIINQQSCGS,4.01 ± 0.11
6,LYTYALARCIFISFMDCRMN,0.371 ± 0.26
7,RPSWFLTADDRVWFSSTGRG,0.053 ± 1.4
8,TRFLLLSLRDGSEQV,0.577 ± 0.73
9,MMDNLVYQRYTCTF,0.448 ± 0.79
10,GAVDSYLQRLFGLFRWDTLK,-0.375 ± 0.64
11,FTLSPLGCVYYDT,0.712 ± 0.72
12,LCAEN,0.48 ± 0.52
13,FFENWVYYHKCSHCYTAQYT,-0.559 ± 0.35
14,WGPRSVNGTLRI,-0.488 ± 0.32
15,QKVHANSMM,0.973 ± 0.9
16,SVFWAWCVADHTIIDQKSSL,0.391 ± 0.48
17,VILSARSFMTIHGHYCTYRV,0.474 ± 0.88
18,KRVLCSTCIHRLCPKSGGDC,1.33 ± 0.68
19,DCDYGCLKLSEEFGSVSSFR,0.165 ± 1.4
20,LLALRPASNKWNAYQTLTEP,-0.462 ± 0.57
21,SESTYYDIQLPVHMLVDMSE,0.257 ± 0.24
22,RFNLCNGFMGIAKNCICIWT,1.41 ± 0.45
23,FAELRFFCCDS,2.45 ± 0.21
24,SFAFAAAYAGEEENRLLMRL,-0.478 ± 0.34
25,GYFVSMSTDYSLSWRYICSA,-1.16 ± 0.67

row,Substance,amyloid nucleation score
1,MFLCNVIYCFFLTYIWLTFF,5.33 ± 0.11
2,SWQPECCTVQTLSSKSEISH,-0.158 ± 1.6
3,SEGSLLYTMWGTLVDWSSCV,-1.08 ± 1.4
4,HIRLAQ,0.157 ± 0.76
5,PQEFLFHTDQRSGCVITETS,0.179 ± 0.57
6,FCWVGQNEWCRHLFELCLER,0.517 ± 0.63
7,MHWLDYSFELLDGQ,1.01 ± 0.75
8,SGKTALNSGSFKFLTSSICG,0.224 ± 1.4
9,NKSVFVLFVWINSENNVYCE,0.443 ± 0.62
10,YNPGG,-0.248 ± 0.26
11,ILVVGWFFHLGCLTMSDVVV,0.225 ± 1.1
12,NRMLSSKQAPSQNFQ,0.814 ± 0.46
13,FTCSTYNCWGVHS,1.26 ± 0.37
14,LSKISTVK,-0.778 ± 0.64
15,FVMHSSSM,-0.34 ± 0.53
16,RLSIS,inactive
17,SEIYSTWNKV,0.002 ± 0.48
18,YLDWTVSALNWAMRMGSTVR,0.381 ± 0.31
19,YFSQPMLLRSSGRAVNSRMR,-1.66 ± 2.4
20,LLVGKMCRWNMSYVG,-0.063 ± 0.28
21,MGEATGSGISADDVYVQGEY,4.26 ± 0.069
22,VLAPF,inactive
23,SKNHSFDSYVMTVYFHHCGK,-0.291 ± 0.4
